Measurements reported in patent publication US20090291088A1 (Biogen, published 2009).

Tests used:
human IGF-1R(1-903)-Fc = molecular target: T1, human IGF-1R(1-903)-Fc (human, UniProt P08069 31-933); assay: SPR, Fab over captured hIGF-1R-Fc
T1 construct: Made by Biogen Idec; Multimerises through IGF-1R and Fc; also called hIGF-1R-Fc; IGF-1R-Fc; not shown: C-terminal human IgG1-Fc tag
Protocol: Experiments were performed on a Biacore 3000 set to 25° C. using HBS-EP (Biacore, Cat. No. BR-1001-88) as the running buffer. An anti-human IgG-Fc antibody (2C11 from Biogenesis, Cat. No. 5218-9850) was immobilized to saturation on a Biacore CM5 chip (Cat. No. BR-1000-14) surface by injection at 500 nM in HBS-EP buffer. mIGF-1R-Fc or hIGF-1R-Fc was captured on the chip surface by injecting 40 μL of 20 nM receptor at 3 μL/min. […] Dissociation of Fab was measured for ˜27 minutes. Fab was serially diluted from 25 to 0.4 nM to obtain concentration dependent kinetic binding curves. Regeneration of the surface chip between each injection series was performed using 3×10 μL injections of 100 mM glycine pH 2.0 at 60 μL/min. Each curve was double referenced using (1) data obtained from a CM5 chip surface devoid of the anti-IgG antibody 2C11 and (2) data from a primary injection of receptor followed by a secondary injection of HBS-EP buffer.

[1] = molecular target: T2, IGF-1R (soluble, construct not stated) (human, UniProt P08069 31-932, limits assumed); assay: Fab affinity for IGF-1R, method not given; Fab, not IgG; method and IGF-1R construct not stated
T2 construct: whole entry named; also called Solube IGF-1R Protein; soluble recombinant human IGF-1R

B1: M13-C06 Fab (Fab, V domains shown)
VH: EVQLLESGGGLVQPGGSLRLSCAASGFTFSIYRMQWVRQAPGKGLEWVSGISPSGGTTWYADSVKGRFTISRDNSKNTLYLQMNSLRAEDTAVYYCARWSGGSGYAFDIWGQGTMVTVSS
VL: DIQMTQSPLSLSASVGDRVTITCQASRDIRNYLNWYQQKPGKAPKLLIYDASSLQTGVPSRFGGSGSGTDFSFTIGSLQPEDIATYYCQQFDSLPHTFGQGTKLEIK
notes: Human Fab from a phage library, kappa light chain
koff (human IGF-1R(1-903)-Fc): 0.000833 s⁻¹ | kon (human IGF-1R(1-903)-Fc): 852000 M⁻¹ s⁻¹ | Kd [1]: 1.3 nM
